Results taken from US20250281611A1 (BIOSCEPTRE AUST, published 2025).

Experiments:
nfP2X7 CAR 1 [1] = molecular target: T1, nfP2X7 CAR 1; test: flow cytometry, nfP2X7 CAR 1 T cells (EGFR+ gate), anti-His-FITC detection
T1 construct: CAR-positive cells gated by the co-expressed EGFR marker; also called nfP2X7 targeted CAR; nfP2X7 CAR on EGFR+ T cells

CD19 [2] = molecular target: T2, CD19 (UniProt P15391 20-556, limits assumed); test: flow cytometry, JeKo-1 cells, bridge at saturating conc., BIL03s-AF647 detection
T2 construct: whole, on cells; also called CD19 on JeKo-1
T2 sequence (looked up): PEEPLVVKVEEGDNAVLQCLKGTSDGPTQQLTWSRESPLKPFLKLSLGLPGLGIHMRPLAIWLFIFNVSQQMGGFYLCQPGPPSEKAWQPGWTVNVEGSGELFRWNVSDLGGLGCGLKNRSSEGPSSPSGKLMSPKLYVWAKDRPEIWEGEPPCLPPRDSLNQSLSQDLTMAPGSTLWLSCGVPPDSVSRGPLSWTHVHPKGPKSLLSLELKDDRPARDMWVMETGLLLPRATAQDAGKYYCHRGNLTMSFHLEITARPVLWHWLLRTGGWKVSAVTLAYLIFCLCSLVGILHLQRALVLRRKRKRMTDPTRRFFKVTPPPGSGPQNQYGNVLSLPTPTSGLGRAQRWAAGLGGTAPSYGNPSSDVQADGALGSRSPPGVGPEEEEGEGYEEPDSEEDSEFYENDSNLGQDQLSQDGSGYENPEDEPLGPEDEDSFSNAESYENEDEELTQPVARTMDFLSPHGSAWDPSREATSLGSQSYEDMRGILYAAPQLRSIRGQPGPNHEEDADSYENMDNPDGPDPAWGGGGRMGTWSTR
Description: (§1) JeKo-1 cells were incubated with different CD19 BRiDGE variants at saturating concentrations. […] The MFI intensity correlates with the number of secondary bound antibodies bound to the CD19 BRiDGE variants that are only detected if they are bound to the JeKo-1 cells. MFI: median fluorescence intensity. BLitz: Bio-Layer interferometry (BLI) technology using HIS-tag identification tips. […] The higher the MFIR, the stronger the binding.

nfP2X7 CAR 1 [3] = molecular target: T1, nfP2X7 CAR 1; test: flow cytometry, anti-His-FITC, MFI on EGFR+ (CAR+) T cells over background 0.44
Summary of the method: (§2)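 CAR T cells incubated with BRiDGE variants at saturating concentrations; bound BRiDGE detected with anti-His-FITC by flow cytometry. EGFR marks CAR expression. Value is median fluorescence intensity on EGFR+ (CAR+) cells divided by that on EGFR− (CAR−) cells.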

nfP2X7 CAR 1 [4] = molecular target: T1, nfP2X7 CAR 1; test: flow cytometry, anti-His-FITC, MFI on EGFR+ (CAR+) over EGFR- (CAR-) T cells
Summary of the method: as §2

CD19 [5] = molecular target: T2, CD19; test: flow cytometry, JeKo-1 cells, BIL03s-AF647 detection, MFI over no-bridge control
Description: as §1

CD19 [6] = molecular target: T2, CD19; test: flow cytometry, JeKo-1 cells, anti-His-FITC detection, MFI over no-bridge control
Description: as §1

CD19 [7] = molecular target: T2, CD19; test: flow cytometry, JeKo-1 cells, bridge at saturating conc., anti-His-FITC detection
Description: as §1

B1: CD19 BRIDGE variant B29 (Fab)
heavy: EVQLVESGGGLVKPGGSLKLSCAASGYTFTSYVMHWVRQAPGKGLEWIGYINPYNDGTKYNEKFQGRVTISSDKSISTAYMELSSLRSEDTAMYYCARGTYYYGTRVFDYWGQGTLVTVSSASTKGPSVFPLAPSSKSTSGGTAALGCLVKDYFPEPVTVSWNSGALTSGVHTFPAVLQSSGLYSLSSVVTVPSSSLGTQTYICNVNHKPSNTKVDKKVEPKSCHHHHHH
light: DFPGHNYTTRNILPGLNITSTFHKTSGSGKGSEPKSSDKTHTGSDIVMTQSPATLSLSPGERATLSCRSSKSLQNVNGNTYLYWFQQKPGQSPQLLIYRMSNLNSGVPDRFSGSGSGTEFTLTISSLEPEDFAVYYCMQHLEYPITFGAGTKLEIKRTVAAPSVFIFPPSDEQLKSGTASVVCLLNNFYPREAKVQWKVDNALQSGNSQESVTEQDSKDSTYSLSSTLTLSKADYEKHKVYACEVTHQGLSSPVTKSFNRGEC
MFI HisTag FITC in EGFR+ Population (nfP2X7 CAR 1 [1]): 2.25 | MFI Bil03 AF647 (CD19 [2]): 7.44 | HisTag MFI Ratio (background 0.44) (nfP2X7 CAR 1 [3]): 5.1 | HisTag MFI Ratio of EGFR+/EGFR- (nfP2X7 CAR 1 [4]): 4.2 | MFIR BIL03 AF647 (CD19 [5]): 16.2 | MFIR HisTag FITC (CD19 [6]): 3.03 | MFI HisTag FITC (CD19 [7]): 2.33

B2: CD19 BRIDGE variant B30 (Fab)
heavy: EVQLVESGGGLVKPGGSLKLSCAASGYTFTSYVMHWVRQAPGKGLEWIGYINPYNDGTKYNEKFQGRVTISSDKSISTAYMELSSLRSEDTAMYYCARGTYYYGTRVFDYWGQGTLVTVSSASTKGPSVFPLAPSSKSTSGGTAALGCLVKDYFPEPVTVSWNSGALTSGVHTFPAVLQSSGLYSLSSVVTVPSSSLGTQTYICNVNHKPSNTKVDKKVEPKSCHHHHHH
light: DFPGHNYTTRNILPGLNITSTFHKTSGSGKGGGGSEPKSSDKTHTGSDIVMTQSPATLSLSPGERATLSCRSSKSLQNVNGNTYLYWFQQKPGQSPQLLIYRMSNLNSGVPDRFSGSGSGTEFTLTISSLEPEDFAVYYCMQHLEYPITFGAGTKLEIKRTVAAPSVFIFPPSDEQLKSGTASVVCLLNNFYPREAKVQWKVDNALQSGNSQESVTEQDSKDSTYSLSSTLTLSKADYEKHKVYACEVTHQGLSSPVTKSFNRGEC
MFI HisTag FITC in EGFR+ Population (nfP2X7 CAR 1 [1]): 2.12 | MFI Bil03 AF647 (CD19 [2]): 7.48 | HisTag MFI Ratio (background 0.44) (nfP2X7 CAR 1 [3]): 4.8 | HisTag MFI Ratio of EGFR+/EGFR- (nfP2X7 CAR 1 [4]): 4.3 | MFIR BIL03 AF647 (CD19 [5]): 16.3 | MFIR HisTag FITC (CD19 [6]): 3.05 | MFI HisTag FITC (CD19 [7]): 2.35

B3: CD19 BRIDGE variant B31 (Fab)
heavy: EVQLVESGGGLVKPGGSLKLSCAASGYTFTSYVMHWVRQAPGKGLEWIGYINPYNDGTKYNEKFQGRVTISSDKSISTAYMELSSLRSEDTAMYYCARGTYYYGTRVFDYWGQGTLVTVSSASTKGPSVFPLAPSSKSTSGGTAALGCLVKDYFPEPVTVSWNSGALTSGVHTFPAVLQSSGLYSLSSVVTVPSSSLGTQTYICNVNHKPSNTKVDKKVEPKSCHHHHHH
light: DFPGHNYTTRNILPGLNITSEPKSSDKTHTGGGGSDIVMTQSPATLSLSPGERATLSCRSSKSLQNVNGNTYLYWFQQKPGQSPQLLIYRMSNLNSGVPDRFSGSGSGTEFTLTISSLEPEDFAVYYCMQHLEYPITFGAGTKLEIKRTVAAPSVFIFPPSDEQLKSGTASVVCLLNNFYPREAKVQWKVDNALQSGNSQESVTEQDSKDSTYSLSSTLTLSKADYEKHKVYACEVTHQGLSSPVTKSFNRGEC
MFI HisTag FITC in EGFR+ Population (nfP2X7 CAR 1 [1]): 2.67 | MFI Bil03 AF647 (CD19 [2]): 5.83 | HisTag MFI Ratio (background 0.44) (nfP2X7 CAR 1 [3]): 6.1 | HisTag MFI Ratio of EGFR+/EGFR- (nfP2X7 CAR 1 [4]): 3.9 | MFIR BIL03 AF647 (CD19 [5]): 12.7 | MFIR HisTag FITC (CD19 [6]): 2.77 | MFI HisTag FITC (CD19 [7]): 2.13

B4: CD19 BRIDGE variant B32 (Fab)
heavy: EVQLVESGGGLVKPGGSLKLSCAASGYTFTSYVMHWVRQAPGKGLEWIGYINPYNDGTKYNEKFQGRVTISSDKSISTAYMELSSLRSEDTAMYYCARGTYYYGTRVFDYWGQGTLVTVSSASTKGPSVFPLAPSSKSTSGGTAALGCLVKDYFPEPVTVSWNSGALTSGVHTFPAVLQSSGLYSLSSVVTVPSSSLGTQTYICNVNHKPSNTKVDKKVEPKSCHHHHHH
light: DFPGHNYTTRNILPGLNITSGSEPKSSDKTHTGGGGSDIVMTQSPATLSLSPGERATLSCRSSKSLQNVNGNTYLYWFQQKPGQSPQLLIYRMSNLNSGVPDRFSGSGSGTEFTLTISSLEPEDFAVYYCMQHLEYPITFGAGTKLEIKRTVAAPSVFIFPPSDEQLKSGTASVVCLLNNFYPREAKVQWKVDNALQSGNSQESVTEQDSKDSTYSLSSTLTLSKADYEKHKVYACEVTHQGLSSPVTKSFNRGEC
MFI HisTag FITC in EGFR+ Population (nfP2X7 CAR 1 [1]): 2.61 | MFI Bil03 AF647 (CD19 [2]): 8.99 | HisTag MFI Ratio (background 0.44) (nfP2X7 CAR 1 [3]): 5.9 | HisTag MFI Ratio of EGFR+/EGFR- (nfP2X7 CAR 1 [4]): 4 | MFIR BIL03 AF647 (CD19 [5]): 19.5 | MFIR HisTag FITC (CD19 [6]): 2.99 | MFI HisTag FITC (CD19 [7]): 2.3

B5: CD19 BRIDGE variant B33 (Fab)
heavy: EVQLVESGGGLVKPGGSLKLSCAASGYTFTSYVMHWVRQAPGKGLEWIGYINPYNDGTKYNEKFQGRVTISSDKSISTAYMELSSLRSEDTAMYYCARGTYYYGTRVFDYWGQGTLVTVSSASTKGPSVFPLAPSSKSTSGGTAALGCLVKDYFPEPVTVSWNSGALTSGVHTFPAVLQSSGLYSLSSVVTVPSSSLGTQTYICNVNHKPSNTKVDKKVEPKSCHHHHHH
light: DFPGHNYTTRNILPGLNITSGGGGSEPKSSDKTHTGGGGSDIVMTQSPATLSLSPGERATLSCRSSKSLQNVNGNTYLYWFQQKPGQSPQLLIYRMSNLNSGVPDRFSGSGSGTEFTLTISSLEPEDFAVYYCMQHLEYPITFGAGTKLEIKRTVAAPSVFIFPPSDEQLKSGTASVVCLLNNFYPREAKVQWKVDNALQSGNSQESVTEQDSKDSTYSLSSTLTLSKADYEKHKVYACEVTHQGLSSPVTKSFNRGEC
MFI HisTag FITC in EGFR+ Population (nfP2X7 CAR 1 [1]): 2.39 | MFI Bil03 AF647 (CD19 [2]): 7.12 | HisTag MFI Ratio (background 0.44) (nfP2X7 CAR 1 [3]): 5.4 | HisTag MFI Ratio of EGFR+/EGFR- (nfP2X7 CAR 1 [4]): 3.9 | MFIR BIL03 AF647 (CD19 [5]): 15.5 | MFIR HisTag FITC (CD19 [6]): 2.92 | MFI HisTag FITC (CD19 [7]): 2.25

B6: CD19 BRIDGE variant B34 (Fab)
heavy: EVQLVESGGGLVKPGGSLKLSCAASGYTFTSYVMHWVRQAPGKGLEWIGYINPYNDGTKYNEKFQGRVTISSDKSISTAYMELSSLRSEDTAMYYCARGTYYYGTRVFDYWGQGTLVTVSSASTKGPSVFPLAPSSKSTSGGTAALGCLVKDYFPEPVTVSWNSGALTSGVHTFPAVLQSSGLYSLSSVVTVPSSSLGTQTYICNVNHKPSNTKVDKKVEPKSCHHHHHH
light: DFPGHNYTTRNILPGLNITSTFHKTSGSGKEPKSSDKTHTGGGGSDIVMTQSPATLSLSPGERATLSCRSSKSLQNVNGNTYLYWFQQKPGQSPQLLIYRMSNLNSGVPDRFSGSGSGTEFTLTISSLEPEDFAVYYCMQHLEYPITFGAGTKLEIKRTVAAPSVFIFPPSDEQLKSGTASVVCLLNNFYPREAKVQWKVDNALQSGNSQESVTEQDSKDSTYSLSSTLTLSKADYEKHKVYACEVTHQGLSSPVTKSFNRGEC
MFI HisTag FITC in EGFR+ Population (nfP2X7 CAR 1 [1]): 2.41 | MFI Bil03 AF647 (CD19 [2]): 7.04 | HisTag MFI Ratio (background 0.44) (nfP2X7 CAR 1 [3]): 5.5 | HisTag MFI Ratio of EGFR+/EGFR- (nfP2X7 CAR 1 [4]): 4.3 | MFIR BIL03 AF647 (CD19 [5]): 15.3 | MFIR HisTag FITC (CD19 [6]): 2.84 | MFI HisTag FITC (CD19 [7]): 2.19

B7: CD19 BRIDGE variant B35 (Fab)
heavy: EVQLVESGGGLVKPGGSLKLSCAASGYTFTSYVMHWVRQAPGKGLEWIGYINPYNDGTKYNEKFQGRVTISSDKSISTAYMELSSLRSEDTAMYYCARGTYYYGTRVFDYWGQGTLVTVSSASTKGPSVFPLAPSSKSTSGGTAALGCLVKDYFPEPVTVSWNSGALTSGVHTFPAVLQSSGLYSLSSVVTVPSSSLGTQTYICNVNHKPSNTKVDKKVEPKSCHHHHHH
light: DFPGHNYTTRNILPGLNITSTFHKTSGSGKGSEPKSSDKTHTGGGGSDIVMTQSPATLSLSPGERATLSCRSSKSLQNVNGNTYLYWFQQKPGQSPQLLIYRMSNLNSGVPDRFSGSGSGTEFTLTISSLEPEDFAVYYCMQHLEYPITFGAGTKLEIKRTVAAPSVFIFPPSDEQLKSGTASVVCLLNNFYPREAKVQWKVDNALQSGNSQESVTEQDSKDSTYSLSSTLTLSKADYEKHKVYACEVTHQGLSSPVTKSFNRGEC
MFI HisTag FITC in EGFR+ Population (nfP2X7 CAR 1 [1]): 2.51 | MFI Bil03 AF647 (CD19 [2]): 9.49 | HisTag MFI Ratio (background 0.44) (nfP2X7 CAR 1 [3]): 5.7 | HisTag MFI Ratio of EGFR+/EGFR- (nfP2X7 CAR 1 [4]): 4.1 | MFIR BIL03 AF647 (CD19 [5]): 20.6 | MFIR HisTag FITC (CD19 [6]): 3 | MFI HisTag FITC (CD19 [7]): 2.31
